The values that follow come from paper PMC10967632, “Anti-CD99 Antibody Therapy Triggers Macrophage-Dependent Ewing Cell Death In Vitro and Myeloid Cell Recruitment In Vivo” (Antibodies, 2024).

In assay [1] the target is T1, Human His-tagged PILRα, extracellular domain (human, UniProt Q9UKJ1 20-197).
T1 construct: PILRα, human, extracellular domain; Band at 55 kDa on SDS-PAGE; also called human PILRα; source: Expi293F, transfected (pcDNA3.4), purified from the supernatant (HisPur Ni-NTA column)
Nature of the assay: ELISA; plate coated with 2 µg/mL human CD99, PILRα at 0.25 to 5 µg/mL, detected with an anti-PILRα antibody and HRP-bound secondary. As to conditions: both partners purified. (In general: An ELISA detects its analyte on a solid surface through an enzyme-linked reagent.)

Assay [2] concerns the target T2, CD99 (or MIC2), 32 kDa type I membrane glycoprotein, on cells (Homo sapiens, UniProt P14209).
T2 construct: CD99 (MIC2), human, endogenous on the cell surface; also called Ewing CD99; macrophage CD99; source: endogenous, on human Ewing sarcoma cell lines (A673, TC32, CADO-ES1, TC71, TTC466); endogenous, on monocytes derived from human PBMCs
Nature of the assay: flow cytometry on cells; Ewing sarcoma cells incubated with anti-CD99 IgG1 (2 µg/mL; NOA1 10 µg/mL; NOA2 also titrated) for one hour at 4 °C, then FITC-conjugated mouse anti-human IgG; CD99-negative Kelly neuroblastoma cells as negative control. The following applies: one partner purified. A general note: A flow cytometer gives signals particle by particle.

T1 sequence (Q9UKJ1 20-197): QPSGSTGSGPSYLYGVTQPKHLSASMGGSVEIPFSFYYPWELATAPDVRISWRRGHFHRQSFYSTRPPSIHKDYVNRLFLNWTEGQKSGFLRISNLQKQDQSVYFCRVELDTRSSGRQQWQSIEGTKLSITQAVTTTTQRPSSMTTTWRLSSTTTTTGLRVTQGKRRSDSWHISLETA

B1: soluble human CD99 (coated on the ELISA plate) (natural protein, UniProt P14209 23-122, looked up)
chain: DGGFDLSDALPDNENKKPTAIPKKPSAGDDFDLGDAVVDGENDDPRPPNPPKPMPNPNPNHPSSSGSFSDADLADGVSGGEGKGGSDGGGSHRKEGEEAD
notes: human CD99, soluble; May be the same CD99-Fc (G&P Biosciences) as m6
As to B1, the binding result in assay [1] is “binds”.

B2: NOA3, anti-CD99 monoclonal antibody (IgG1) (antibody, V domains shown)
VH: EVQLVQSGAEVKKPGESLKIACKGSGYSFSKYWIGWVRQMPGKGLEWMGIIYPGDSDTRYSPSFQGQVTISVDTSISTAYLQWSSLKASDTAIYYCARHLRNFGDAFDIWGQGTTVTVSS
VL: SYELTQPPSVSVSPGQTARITCSGDALPKQYAYWYQQKPGQSPVLVIYQDSKRPSGIPERFSGSNSGNTATLTISGTQAMDEADYYCQAWDSSTAFGGGTKLTVL
notes: constant region IgG1; IgG1; isolated by phage display
In the case of B2, the binding result in assay [2] was “binds”.
